This is an account of results in patent publication US20140147439A1 (NVIP, published 2014).

The experiment concerns the target T1, human complement C1q (from human serum) (human, UniProt P02745 23-245; P02746 28-253; P02747 29-245).
T1 construct: Native C1q in human serum diluted 1/100
Briefly: ELISA: antibody captured on NGF-coated plate, incubated with human serum, bound C1q detected with sheep anti-C1q-HRP, absorbance at 450 nm. (An ELISA detects its analyte on a solid surface through an enzyme-linked reagent.)

T1 sequence (P02745 23-245 limits assumed, chain 1 of 3): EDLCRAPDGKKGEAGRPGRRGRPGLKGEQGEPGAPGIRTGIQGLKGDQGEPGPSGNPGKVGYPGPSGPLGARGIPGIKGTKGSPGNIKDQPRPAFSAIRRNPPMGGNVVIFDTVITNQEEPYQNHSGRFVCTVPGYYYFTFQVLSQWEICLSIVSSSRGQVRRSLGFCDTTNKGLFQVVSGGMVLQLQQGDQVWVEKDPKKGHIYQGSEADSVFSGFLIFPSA
T1 sequence (P02746 28-253 limits assumed, chain 2 of 3): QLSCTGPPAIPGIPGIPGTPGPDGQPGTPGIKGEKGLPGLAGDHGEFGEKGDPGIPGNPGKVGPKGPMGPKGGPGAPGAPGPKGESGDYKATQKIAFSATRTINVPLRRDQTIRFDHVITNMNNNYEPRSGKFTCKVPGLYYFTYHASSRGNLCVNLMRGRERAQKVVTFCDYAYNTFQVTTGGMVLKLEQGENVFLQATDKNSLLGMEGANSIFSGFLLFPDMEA
T1 sequence (P02747 29-245 limits assumed, chain 3 of 3): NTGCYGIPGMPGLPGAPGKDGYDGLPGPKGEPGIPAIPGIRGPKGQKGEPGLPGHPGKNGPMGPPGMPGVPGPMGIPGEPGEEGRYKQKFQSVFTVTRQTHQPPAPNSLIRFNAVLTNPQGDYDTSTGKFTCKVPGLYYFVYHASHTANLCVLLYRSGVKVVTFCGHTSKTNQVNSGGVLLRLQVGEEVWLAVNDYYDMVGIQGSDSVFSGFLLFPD
Procedure: The plates were washed and then incubated with human serum and bound complement C1q was measured by binding of anti-human C1q polyclonal antibody HRP and developed as above.
Plates were coated with 100 μl/well of 5 μg/ml mouse NGF and blocked with 5% BSA/PBS. […] The plates were washed and incubated for 1 hour at room temperature with 100 μl/well of human serum diluted 1/100 in veronal buffered saline containing 0.5 mM MgCl₂, 2 mM CaCl₂, 0.05% Tween-20, 0.1% gelatin and 0.5% BSA. After washing, plates were incubated with 100 μl of a 1/800 dilution of sheep anti-C1q-HRP (Serotec) in PBS/1% BSA. After washing, plates were developed by the addition of 100 μl TMB substrate (Thermo Scientific). Development was stopped by the addition of 100 μl of 2NH₂SO₄ and absorbance read at 450 nm.

B1: felinised anti-NGF monoclonal antibody (heavy chain SEQ ID NO:6, light chain SEQ ID NO:5) (antibody, IgG2)
heavy: QVQLVESGGDLVQPGGSLRLTCAASGFSLTNNNVNWVRQAPGKGLEWMGGVWAGGATDYNSALKGRFTISRDNAKNTLYLQMNSLKTEDTATYYCARDGGYSSSTLYAMDAWGQGTLVTVSSASTTAPSVFPLAPSCGTTSGATVALACLVLGYFPEPVTVSWNSGALTSGVHTFPAVLQASGLYSLSSMVTVPSSRWLSDTFTCNVAHPPSNTKVDKTVRKTDHPPGPKPCDCPKCPPPEMLGGPSIFIFPPKPKDTLSISRTPEVTCLVVDLGPDDSDVQITWFVDNTQVYTAKTSPREEQFNSTYRVVSVLPILHQDWLKGKEFKCKVNSKSLPSPIERTISKAKGQPHEPQVYVLPPAQEELSRNKVSVTCLIKSFHPPDIAVEWEITGQPEPENNYRTTPPQLDSDGTYFVYSKLSVDRSHWQRGNTYTCSVSHEALHSHHTQKSLTQSPGK
light: DIVMTQTPLSLSVTPGEPASISCRASEDIYNALAWYLQKPGQSPRRLIYNTDTLHTGVPDRFSGSGSGTDFTLRISRVEADDVGVYFCQHYFHYPRTFGPGTKLEIKRSDAQPSVFLFQPSLDELHTGSASIVCILNDFYPKEVNVKWKVDGVVQTKASKESTTEQNSKDSTYSLSSTLTMSRTEYQSHEKFSCEVTHKSLASTLVKSFNRSECQRE
notes: Felinised alphaD11 variable domains with a feline HC2 (IgG2) heavy chain constant region and a feline kappa constant domain; also called felinised antibody; felinised anti-NGF MAb
As for B1, the binding result is “no binding (tested: human serum diluted 1/100)”.
